{
  "source": "paper PMC3935945",
  "about": "“Insight into Highly Conserved H1 Subtype-Specific Epitopes in Influenza Virus Hemagglutinin” (PLoS ONE, 2014)",
  "binders": {"B1": {"name": "Fab fragment from H1-specific monoclonal antibody GC0587 (Fab, V domains shown)", "VH": "VKLQQSGGGVVQPGGSLRLSCAASGFTFSDYDMSWIRQAPGKGLEWVSGILGGSERSYYRDSVKGRFTISRDNSRKTLYLQMNSLRAEDTAVYYCARHGSPGYTLYAWDYWGQGTMVTVSS", "VL": "DIQMTQSPASLAVSPGQRATITCRASESVSNYGINFINWFQQKPGQPPKLLIYTASNKGTGVPARFSGSGSGTDFTLTINPVEAEDTANYFCQQTKEVPYTFGGGTKLEIK", "notes": "also called Fab0587"}},
  "biological_target": "T1, recombinant hemagglutinin (HA) of 2009 pandemic virus A/Korea/01/2009 (KR01) (Influenza A virus A/Korea/01/2009 (H1N1), strain)",
  "T1 construct": "also called KR01 HA; H1N1 HA",
  "assay": "crystal structure",
  "settings": "both partners purified",
  "data": [
    {"binder": "B1", "values": [
      {"measurement": "binding result", "value": "binds"}
    ]}
  ]
}
